# Assay results: patent US20230279077A1
# B1: 3-G-75_M13R (VHH, not shown: small tags and cut ends)
# VHH: QVKLEESGGGVVQDGGSLRLSCAAIEQFFTTNAMAWFRQAPGKERELVAATDWSGQSTSYADSVKGRFTISRDTAKNVMYLQMNILHTEDTAVYYCARAPGRVLLTSDLESYTIWGQGTQVTVSS
# How the values were obtained:
# [1] = target: HSV-1 glycoprotein D-Fc fusion protein (HSV-1) (UniProt Q69091); experiment: phage ELISA, glycoprotein D coated, anti-M13 HRP; well C10
# [2] = target: HSV-1 glycoprotein D-Fc fusion protein (HSV-1) (UniProt Q69091); experiment: SPR, G-Fc captured on anti-human IgG
# [3] = target: HSV-1 glycoprotein D-Fc fusion protein (HSV-1) (UniProt Q69091); experiment: SPR Biacore T200, single cycle kinetics, G-Fc captured on anti-human IgG, 1:1 fit
# [4] = target: HSV-1 glycoprotein D-Fc fusion protein (HSV-1) (UniProt Q69091); experiment: SPR, G-Fc captured on anti-human IgG; high end tied to G75 by Table 6
# [5] = target: HSV-1 glycoprotein D-Fc fusion protein (HSV-1) (UniProt Q69091); experiment: SPR Biacore T200, single cycle kinetics, G-Fc captured on anti-human IgG, 1:1 fit, second run
binder,measurement,setting,value
B1,A450 nm,[1],1.13
same,Kd,[2],4 nM
same,Kd,[3],4.02 nM
same,koff,[3],0.0139 s⁻¹
same,kon,[3],3.47e+06 M⁻¹ s⁻¹
same,Kd,[4],4 nM
same,Kd,[5],3.86 nM
same,koff,[5],0.0152 s⁻¹
same,kon,[5],3.93e+06 M⁻¹ s⁻¹
